{"source": "patent US20250333531A1", "key": {"[1]": {"biological_target": "human CD37 (human) (UniProt P11049)", "sequence (P11049 whole entry)": "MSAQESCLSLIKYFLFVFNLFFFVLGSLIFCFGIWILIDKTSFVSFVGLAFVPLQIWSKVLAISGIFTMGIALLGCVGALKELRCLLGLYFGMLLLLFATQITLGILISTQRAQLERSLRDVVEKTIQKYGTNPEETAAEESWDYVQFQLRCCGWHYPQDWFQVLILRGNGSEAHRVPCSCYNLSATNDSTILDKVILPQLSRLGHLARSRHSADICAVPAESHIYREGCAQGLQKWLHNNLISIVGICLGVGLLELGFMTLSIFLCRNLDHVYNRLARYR", "assay": "flow cytometry on Ramos cells, isotype control, MFI normalised to chHH1-DOTA (blank supernatant 28.3%)"}, "[2]": {"biological_target": "CD20 (UniProt P11836)", "sequence (P11836 whole entry)": "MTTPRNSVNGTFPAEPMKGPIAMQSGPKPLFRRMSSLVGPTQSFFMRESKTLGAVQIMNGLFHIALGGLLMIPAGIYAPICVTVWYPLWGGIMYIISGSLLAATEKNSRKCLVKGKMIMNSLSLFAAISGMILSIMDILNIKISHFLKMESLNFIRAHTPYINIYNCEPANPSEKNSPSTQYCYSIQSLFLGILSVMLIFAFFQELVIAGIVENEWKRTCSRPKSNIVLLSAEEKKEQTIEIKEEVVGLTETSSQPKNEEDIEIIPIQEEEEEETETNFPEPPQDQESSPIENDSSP", "assay": "flow cytometry, FITC-labelled antibody on Daudi and SU-DHL-6 cells"}, "[3]": {"biological_target": "CD20 (UniProt P11836)", "assay": "flow cytometry on CLL patient sample CLL177, FITC-rituximab at 10 µg per 10^6 cells, median fluorescence intensity, background corrected"}, "[4]": {"biological_target": "CD20 (UniProt P11836)", "assay": "flow cytometry on CLL patient sample CLL187, FITC-rituximab at 10 µg per 10^6 cells, median fluorescence intensity, background corrected"}, "[5]": {"biological_target": "biotinylated soluble human FcRn (human) (UniProt P55899)", "sequence (P55899 24-297 limits assumed, chain 1 of 2)": "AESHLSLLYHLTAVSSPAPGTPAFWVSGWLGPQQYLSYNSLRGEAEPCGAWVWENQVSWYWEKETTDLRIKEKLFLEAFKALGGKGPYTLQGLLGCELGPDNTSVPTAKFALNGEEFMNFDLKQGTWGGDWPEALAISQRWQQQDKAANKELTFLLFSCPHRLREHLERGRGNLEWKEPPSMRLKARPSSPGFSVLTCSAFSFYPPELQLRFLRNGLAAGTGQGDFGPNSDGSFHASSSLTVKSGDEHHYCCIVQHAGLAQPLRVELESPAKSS", "sequence (chain, as listed by the source limits assumed, chain 2 of 2)": "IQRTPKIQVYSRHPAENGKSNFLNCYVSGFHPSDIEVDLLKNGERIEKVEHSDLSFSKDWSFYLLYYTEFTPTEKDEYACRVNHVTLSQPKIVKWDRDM", "assay": "ELISA: IgG coated at 1000-0.45 ng/ml, biotinylated soluble human FcRn 250 ng/ml pre-complexed with AP-streptavidin, pH 7.4, absorbance 405 nm"}, "[6]": {"biological_target": "biotinylated truncated soluble human FcγRIIIa-V158 (human) (UniProt P08637)", "assay": "ELISA: IgG coated at 10000-4.5 ng/ml, biotinylated truncated soluble human FcγRIIIa-V158 250 ng/ml pre-complexed with AP-streptavidin, absorbance 405 nm"}, "[7]": {"biological_target": "biotinylated truncated soluble human FcγRI (human) (UniProt P12314)", "sequence (P12314 16-292)": "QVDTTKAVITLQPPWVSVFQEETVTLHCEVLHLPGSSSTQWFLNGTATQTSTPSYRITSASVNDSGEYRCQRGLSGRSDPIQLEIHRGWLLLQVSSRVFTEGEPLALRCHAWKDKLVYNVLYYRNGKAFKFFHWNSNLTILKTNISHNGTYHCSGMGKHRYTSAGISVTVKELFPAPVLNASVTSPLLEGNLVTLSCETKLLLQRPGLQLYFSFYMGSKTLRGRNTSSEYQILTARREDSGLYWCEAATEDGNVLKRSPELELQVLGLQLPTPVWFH", "assay": "ELISA: IgG coated at 10000-4.5 ng/ml, biotinylated truncated soluble human FcγRI 250 ng/ml pre-complexed with AP-streptavidin, absorbance 405 nm"}, "[8]": {"biological_target": "FcγRIIIa-V158 on Promega Jurkat effector cells (UniProt P08637)", "assay": "cell-based or functional assay"}, "[9]": {"biological_target": "biotinylated truncated soluble human FcγRIIa-R131 (human) (UniProt P12318)", "sequence (P12318 34-217 H167R)": "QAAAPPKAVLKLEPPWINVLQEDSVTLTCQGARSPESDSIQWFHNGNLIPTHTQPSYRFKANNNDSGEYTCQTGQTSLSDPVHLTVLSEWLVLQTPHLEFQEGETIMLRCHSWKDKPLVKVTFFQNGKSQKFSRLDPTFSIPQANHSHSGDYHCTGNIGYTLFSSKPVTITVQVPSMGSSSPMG", "assay": "ELISA: IgG coated at 10000-4.5 ng/ml, biotinylated truncated soluble human FcγRIIa-R131 250 ng/ml pre-complexed with AP-streptavidin, absorbance 405 nm"}, "[10]": {"biological_target": "biotinylated truncated soluble human FcγRIIa-H131 (human) (UniProt P12318)", "sequence (P12318 34-217)": "as the sequence (P12318 34-217 H167R) above, with R134H counted along it", "assay": "ELISA: IgG coated at 10000-4.5 ng/ml, biotinylated truncated soluble human FcγRIIa-H131 250 ng/ml pre-complexed with AP-streptavidin, absorbance 405 nm"}, "[11]": {"biological_target": "biotinylated truncated soluble human FcγRIIb (human) (UniProt P31994)", "sequence (P31994 43-217)": "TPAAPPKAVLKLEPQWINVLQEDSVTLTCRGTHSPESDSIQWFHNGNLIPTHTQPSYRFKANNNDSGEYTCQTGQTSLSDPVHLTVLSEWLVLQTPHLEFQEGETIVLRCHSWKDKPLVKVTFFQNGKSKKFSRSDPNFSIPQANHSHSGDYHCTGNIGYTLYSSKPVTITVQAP", "assay": "ELISA: IgG coated at 10000-4.5 ng/ml, biotinylated truncated soluble human FcγRIIb 250 ng/ml pre-complexed with AP-streptavidin, absorbance 405 nm"}}}
{"substance": "isotype control antibody", "values": [{"measurement": "Normalized average binding (%)", "setting": "[1]", "value": 29.5, "unit": "%"}]}
{"substance": "Anti-CD20 (10F381 rituximab) FITC-conjugated rabbit/human chimeric Ab (antibody)", "values": [{"measurement": "saturation titer (µg per 10^6 cells)", "setting": "[2]", "value": 10}, {"measurement": "Avg. MFI (a.u.)", "setting": "[3]", "value": 52, "unit": "a.u."}, {"measurement": "Avg. MFI (a.u.)", "setting": "[4]", "value": 68, "unit": "a.u."}]}
{"substance": "obinutuzumab (antibody)", "values": [{"measurement": "EC50 (read off the curve)", "setting": "[5]", "value": 0.06, "unit": "µg/mL"}, {"measurement": "EC50 (read off the curve)", "setting": "[6]", "value": 1, "unit": "µg/mL"}, {"measurement": "EC50 (read off the curve)", "setting": "[7]", "value": 0.6, "unit": "µg/mL"}, {"measurement": "average potency of the ADCC response (Example 13)", "setting": "[8]", "value": 1.1, "unit": "nM"}, {"measurement": "EC50 (read off the curve)", "setting": "[9]", "value": 2, "unit": "µg/mL"}, {"measurement": "EC50 (read off the curve)", "setting": "[10]", "value": 0.6, "unit": "µg/mL"}, {"measurement": "EC50 (read off the curve)", "setting": "[11]", "value": 2, "unit": "µg/mL"}]}
